Source: article PMC9723800, “Structural and dynamic basis of DNA capture and translocation by mitochondrial Twinkle helicase” (Nucleic Acids Research, 2022)
Where a chain is given by its changes, count along the chain named. Values joined by “and” are separate entries in the source; they are usually repeats but may differ in a detail not shown here. Equal values may be shown once.

How the values were obtained:
[1] = biological target: E325Q LcTwinkle (Lates calcarifer Twinkle helicase, active site mutant) (Lates calcarifer); assay: cryo-EM structure; apo (DNA-free) classes found by 3D classification in the same sample prepared with ssDNA and ATP: LcTwinkle6 and LcTwinkle7 (8.5 A)
[2] = biological target: E325Q LcTwinkle (Lates calcarifer Twinkle helicase, active site mutant) (Lates calcarifer); assay: cryo-EM structure; E325Q LcTwinkle with ssDNA (1:1.5), 1 mM ATP, 2 mM MgCl2, 50 mM Tris pH 8.0, 150 mM KCl, 3 mM DTT; DNA-bound classes (LcTwinkle-DNA 3.5 A, LcTwinkle-DNA2 7.5 A)
[3] = biological target: WT LcTwinkle (Lates calcarifer Twinkle helicase) (Lates calcarifer); assay: negative staining EM; 0.02 mg/ml Twinkle in 50 mM Tris pH 8.0, 150 mM KCl, 3 mM DTT, 1 mM ATP, 2 mM MgCl2, ssDNA at 1:2 relative to hexamers; uranyl acetate; 2D classification
[4] = biological target: T1, LcTwinkle (Lates calcarifer, UniProt A0A4W6C5C5, E452Q); assay: cryo-EM structure of LcTwinkle-ssDNA-ATP complex, […] Å; assay type: binding; settings: 1 mM ATP, 2 mM MgCl2, pH 8.0, five ATP at the subunit interfaces, one Mg2+ each
T1 construct: gene TWNK; shorter variant (primase-like NTD + helicase CTD), synthesized gene, modified pET28a, N-terminal His tag cut by PreScission; E. coli BL21(DE3); homo-hexamer (also heptamer)
T1 sequence (A0A4W6C5C5 128-683 E452Q): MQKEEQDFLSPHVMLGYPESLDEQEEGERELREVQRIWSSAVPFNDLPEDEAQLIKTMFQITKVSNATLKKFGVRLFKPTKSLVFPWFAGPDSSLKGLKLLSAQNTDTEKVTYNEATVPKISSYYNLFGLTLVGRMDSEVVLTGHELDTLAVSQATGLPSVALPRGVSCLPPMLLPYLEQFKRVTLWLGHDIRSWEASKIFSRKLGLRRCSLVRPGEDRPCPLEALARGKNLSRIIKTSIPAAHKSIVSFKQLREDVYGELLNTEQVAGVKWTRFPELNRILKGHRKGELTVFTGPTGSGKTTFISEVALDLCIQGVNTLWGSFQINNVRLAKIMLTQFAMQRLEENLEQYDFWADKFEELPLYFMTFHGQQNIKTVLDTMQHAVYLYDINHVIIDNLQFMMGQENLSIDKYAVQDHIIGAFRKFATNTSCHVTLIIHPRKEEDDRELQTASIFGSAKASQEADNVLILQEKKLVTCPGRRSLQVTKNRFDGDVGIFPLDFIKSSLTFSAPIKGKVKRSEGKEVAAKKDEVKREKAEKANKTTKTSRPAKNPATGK

[5] = biological target: T2, LcTwinkle (Lates calcarifer, UniProt A0A4W6C5C5); assay: [gamma-32P]ATP TLC ATPase assay, Michaelis-Menten fit; assay type: biochemical; settings: 12 mM MgCl2, 1 uM ssDNA, 150 mM KCl, pH 8.0, 20 °C; labelled compound as tracer
T2 construct: gene TWNK; shorter variant (primase-like NTD + helicase CTD), synthesized gene, modified pET28a, N-terminal His tag cut by PreScission; E. coli BL21(DE3); homo-hexamer (also heptamer)
T2 sequence (A0A4W6C5C5 128-683): T1 sequence (A0A4W6C5C5 128-683 E452Q) with Q325E

[6] = biological target: T3, LcTwinkle R489A (Lates calcarifer, UniProt A0A4W6C5C5 128-683, R616A); assay: fluorescence anisotropy; 0.5 mM ATP, 1 mM Mg2+; FA: 25 mM Tris-HCl pH 8.0, 150 mM KCl, 0.5 mM ATP, 1 mM MgCl2, 20 nM Cy5-ssDNA, temperature not stated; SEC/cryo-EM: 50 mM Tris pH 8.0, 150 mM KCl, 3 mM DTT, 1; settings: protein: recombinant; tags: N-terminal His tag, PreScission-cleaved; chain copies: 6; label: 5'-Cy5; single strand
T3 sequence: T1 sequence (A0A4W6C5C5 128-683 E452Q) with Q325E, R489A

[7] = biological target: T4, LcTwinkle R440A (Lates calcarifer, UniProt A0A4W6C5C5 128-683, R567A); assay: as above; settings: protein: recombinant; tags: N-terminal His tag, PreScission-cleaved; chain copies: 6; label: 5'-Cy5; single strand
T4 sequence: T1 sequence (A0A4W6C5C5 128-683 E452Q) with Q325E, R440A

[8] = biological target: T5, LcTwinkle H438A (Lates calcarifer, UniProt A0A4W6C5C5 128-683, H565A); assay: as above; settings: protein: recombinant; tags: N-terminal His tag, PreScission-cleaved; chain copies: 6; label: 5'-Cy5; single strand
T5 sequence: T1 sequence (A0A4W6C5C5 128-683 E452Q) with Q325E, H438A

[9] = biological target: T6, LcTwinkle S456A (Lates calcarifer, UniProt A0A4W6C5C5 128-683, S583A); assay: as above; settings: protein: recombinant; tags: N-terminal His tag, PreScission-cleaved; chain copies: 6; label: 5'-Cy5; single strand
T6 sequence: T1 sequence (A0A4W6C5C5 128-683 E452Q) with Q325E, S456A

[10] = biological target: T7, LcTwinkle E325Q (Lates calcarifer, UniProt A0A4W6C5C5 128-683, E452Q); assay: cryo-EM structure (3.5 A); 1 mM ATP, 2 mM Mg2+; FA: 25 mM Tris-HCl pH 8.0, 150 mM KCl, 0.5 mM ATP, 1 mM MgCl2, 20 nM Cy5-ssDNA, temperature not stated; SEC/cryo-EM: 50 mM Tris pH 8.0, 150 mM KCl, 3 mM DTT, 1; settings: protein: recombinant; tags: N-terminal His tag, PreScission-cleaved; chain copies: 6; single strand
T7 sequence: T1 sequence (A0A4W6C5C5 128-683 E452Q)

For “E325Q LcTwinkle (Lates calcarifer Twinkle helicase, active site mutant) (enzyme)”, the stoichiometry N [1] was 6 and 7 and the stoichiometry N [2] was 6.

For “WT LcTwinkle (Lates calcarifer Twinkle helicase) (enzyme)”, the stoichiometry N [3] was 6 and 7.

Nc1ncnc2c1ncn2[C@@H]1O[C@H](COP(=O)(O)OP(=O)(O)OP(=O)(O)O)[C@@H](O)[C@H]1O [ATP] was tested, and the “cryo-EM structure of LcTwinkle-ssDNA-ATP complex, 3.5 Å” value [4] was “ATPase sites are located at each of the subunit interfaces (Figure 2A), and five ATP molecules” and the KM [5] was “The data were fitted to Michaelis–Menten equation with GraphPad”.

GGATTATTTACATTGGCAGATTCACC (ssDNA) [Cy5-ssDNA]: no binding [6]; no binding [7]; no binding [8]. GGATTATTTACATTGGCAGATTCACC (ssDNA) [Cy5-ssDNA]: no binding [9].

TGGTCTTTTTTTTTTTTTTTTTTTTTTTTT (ssDNA) [TGGTC-oligo(dT) ssDNA]: binds [10].
